From patent publication US20170174789A1 (Regeneron, published 2017)

T1: hTie2-mFc (human)
T1 chain: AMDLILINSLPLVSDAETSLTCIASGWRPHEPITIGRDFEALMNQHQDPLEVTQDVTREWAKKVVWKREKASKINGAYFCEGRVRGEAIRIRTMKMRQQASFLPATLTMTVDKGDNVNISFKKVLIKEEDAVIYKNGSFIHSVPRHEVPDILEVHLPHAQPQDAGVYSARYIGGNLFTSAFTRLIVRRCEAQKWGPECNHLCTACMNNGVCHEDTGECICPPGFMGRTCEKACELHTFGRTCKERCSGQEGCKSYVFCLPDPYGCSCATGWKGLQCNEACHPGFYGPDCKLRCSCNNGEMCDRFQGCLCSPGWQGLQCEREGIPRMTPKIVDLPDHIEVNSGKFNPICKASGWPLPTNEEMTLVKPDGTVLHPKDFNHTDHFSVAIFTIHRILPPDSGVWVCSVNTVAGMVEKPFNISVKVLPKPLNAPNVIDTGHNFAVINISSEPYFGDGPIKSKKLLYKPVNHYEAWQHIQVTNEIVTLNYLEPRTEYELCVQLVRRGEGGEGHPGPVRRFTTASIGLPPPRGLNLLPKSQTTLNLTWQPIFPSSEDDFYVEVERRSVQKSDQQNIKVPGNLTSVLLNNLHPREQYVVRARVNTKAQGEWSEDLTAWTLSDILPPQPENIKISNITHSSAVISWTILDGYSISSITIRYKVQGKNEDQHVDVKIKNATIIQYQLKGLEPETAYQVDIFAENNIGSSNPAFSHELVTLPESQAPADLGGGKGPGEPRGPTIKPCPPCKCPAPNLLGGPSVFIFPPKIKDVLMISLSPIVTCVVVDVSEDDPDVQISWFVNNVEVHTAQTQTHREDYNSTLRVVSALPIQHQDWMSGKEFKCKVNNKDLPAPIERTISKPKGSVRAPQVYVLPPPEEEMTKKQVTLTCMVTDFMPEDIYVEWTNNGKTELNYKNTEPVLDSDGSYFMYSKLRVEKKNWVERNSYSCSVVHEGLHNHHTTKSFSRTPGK

B1: H1H2340B (antibody, V domains shown)
VH: EVQLVESGGGLVQPGGSLRLSCAASGFTFSRYWMSWVRQAPGMGLEWVANIKQDGSEKNYVDSVKGRFTVSRDNAKNSLYLQMNSLRAEDTAVYYCASAIFGVVITSYWGQGTLVTVSS
VL: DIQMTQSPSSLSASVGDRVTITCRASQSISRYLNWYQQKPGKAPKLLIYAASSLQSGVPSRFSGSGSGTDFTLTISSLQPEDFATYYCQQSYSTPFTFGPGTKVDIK
notes: Tested as H1H2340B (human IgG format, H1H prefix); also called HIH2340B
B2: H1H2339B (antibody, V domains shown)
VH: EVQLVESGGGLVQPGGSLRLSCAASGFTFSSYAMNWVRQAPGKGLEWVSSISGSGGNTYYADSVKGRFTISRDNSKNTLYLQLNSLRAEDTAVYYCAKDHSLSWYRNVFDIWGQGTMVTVSS
VL: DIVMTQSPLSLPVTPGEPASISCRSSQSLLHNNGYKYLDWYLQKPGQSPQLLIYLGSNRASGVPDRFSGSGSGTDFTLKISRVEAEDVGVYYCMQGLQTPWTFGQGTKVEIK
notes: Tested as H1H2339B (human IgG format, H1H prefix)

Assays:
[1] = biological target: hTie2 on 293-Tie2/SRE-Luc cells (human, UniProt Q02763 23-1124); experiment: cell-based or functional assay
[2] = biological target: T2, rTie2-hFc (rat); experiment: SPR Biacore 25C, mAb captured
T2 construct: also called rat Tie2
T2 sequence (chain, as listed by the source limits assumed): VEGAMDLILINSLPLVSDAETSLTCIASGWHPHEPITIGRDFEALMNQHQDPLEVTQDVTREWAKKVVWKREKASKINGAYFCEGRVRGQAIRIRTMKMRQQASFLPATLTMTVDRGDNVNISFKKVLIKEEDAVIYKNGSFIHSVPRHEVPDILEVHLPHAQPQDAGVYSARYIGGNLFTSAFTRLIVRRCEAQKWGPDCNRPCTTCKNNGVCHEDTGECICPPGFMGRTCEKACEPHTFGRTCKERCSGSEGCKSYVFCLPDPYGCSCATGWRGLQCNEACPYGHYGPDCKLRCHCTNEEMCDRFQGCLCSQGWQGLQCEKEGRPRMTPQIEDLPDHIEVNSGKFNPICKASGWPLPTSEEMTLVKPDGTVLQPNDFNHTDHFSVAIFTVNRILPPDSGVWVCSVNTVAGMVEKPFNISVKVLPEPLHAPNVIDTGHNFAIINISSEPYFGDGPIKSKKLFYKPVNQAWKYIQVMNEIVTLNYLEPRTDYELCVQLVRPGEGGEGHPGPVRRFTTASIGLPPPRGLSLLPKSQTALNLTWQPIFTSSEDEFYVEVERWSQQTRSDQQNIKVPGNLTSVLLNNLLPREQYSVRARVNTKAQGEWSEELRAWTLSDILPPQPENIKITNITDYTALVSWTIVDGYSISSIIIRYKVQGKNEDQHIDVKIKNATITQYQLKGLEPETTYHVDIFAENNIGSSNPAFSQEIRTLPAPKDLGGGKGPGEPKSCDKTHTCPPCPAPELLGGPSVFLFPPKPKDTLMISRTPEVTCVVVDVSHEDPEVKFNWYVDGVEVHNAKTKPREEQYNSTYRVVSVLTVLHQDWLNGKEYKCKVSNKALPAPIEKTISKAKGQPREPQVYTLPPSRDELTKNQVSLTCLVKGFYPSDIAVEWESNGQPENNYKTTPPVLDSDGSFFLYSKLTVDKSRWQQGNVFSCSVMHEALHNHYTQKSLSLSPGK
Procedure: (§1) (Tables 3-6). Measurements were conducted on a Biacore 2000 or T200 instrument.
(§2) For antibodies with a mouse constant region (designated H1M or H2M), antibodies were immobilized onto an anti-mouse Fc sensor surface and different concentrations of human, mouse or rat Tie2 constructs (hTie2-His, mTie2-hFc and rTie2-hFc) were injected over the antibody captured surface. For antibodies in the human IgG format (designated H1H or H4H), either an anti-human Fc sensor surface (hTie2-His and hTie2-mFc) or anti-human Fab sensor surface (mTie2-hFc and rTie2-hFc) was employed depending on the Tie-2 construct applied to the antibody captured surface. Amino acid sequences of the constructs used in this Example are as follows: hTie2-His (SEQ ID NO:2); hTie2-hFc (SEQ ID NO:3); hTie2-mFc (SEQ ID NO:4); rTie2-hFc (SEQ ID NO:5); and mTie2-hFc (SEQ ID NO:6).
(§3) Kinetic rate constants—association rate (ka) and dissociation rate (kd) were determined by fitting the real time binding sensorgrams to a 1:1 binding model with mass transport limitation using Scrubber 2.0 curve fitting software. The equilibrium dissociation constant (KD) and dissociative half-life (T½) were calculated from the kinetic rate constants as: KD (M)=kd/ka; and T½ (min)=(In2/(60*kd).).

[3] = biological target: T1, hTie2-mFc; experiment: SPR Biacore 25C, mAb captured
Procedure: as §1, §2, §3

[4] = biological target: T3, hTie2-His (human, UniProt Q02763 23-745); experiment: SPR Biacore 25C, mAb captured
T3 construct: also called ecto-Tie2 fused to 6xHis; biotin-Tie2-His
Procedure: as §1, §2, §3

[5] = biological target: T4, mTie2-hFc (mouse); experiment: SPR Biacore 25C, mAb captured
T4 construct: also called mouse Tie2
Procedure: as §1, §2, §3

[6] = biological target: T1, hTie2-mFc; experiment: SPR Biacore 37C, mAb captured
Procedure: as §1, §2, §3

[7] = biological target: T3, hTie2-His; experiment: SPR Biacore 37C, mAb captured
Procedure: as §1, §2, §3

| Binder | EC50, Tie2 dependent luciferase activity, 293-Tie2/SRE-Luc cells with 1 nM BowAng1 [1] | EC50, Tie2 dependent luciferase activity, 293-Tie2/SRE-Luc cells with 1 nM BowAng2 [1] | Kd [3] | T½ [3] | koff [3] | kon [3] | Kd [4] | T½ [4] | koff [4] | kon [4] | Kd [5] | T½ [5] | koff [5] | kon [5] | Kd [6] | T½ [6] | koff [6] | kon [6] | Kd [7] | T½ [7] | also measured |
| --- | --- | --- | --- | --- | --- | --- | --- | --- | --- | --- | --- | --- | --- | --- | --- | --- | --- | --- | --- | --- | --- |
| B1 | 1.41 nM | 2.1 nM | 1.16 nM | 60 min | 0.000191 s⁻¹ | 165000 M⁻¹ s⁻¹ | 49.2 nM | 3 min | 0.00345 s⁻¹ | 70100 M⁻¹ s⁻¹ | 49.6 nM | 2 min | 0.00672 s⁻¹ | 136000 M⁻¹ s⁻¹ | 2.58 nM | 22 min | 0.000515 s⁻¹ | 200000 M⁻¹ s⁻¹ | 102 nM | 1 min | Kd [2]: 25.9 nM; T½ [2]: 3 min; koff [2]: 0.00371 s⁻¹; kon [2]: 143000 M⁻¹ s⁻¹; koff [7]: 0.00998 s⁻¹; kon [7]: 97500 M⁻¹ s⁻¹ |
| B2 | 10.3 nM | 13 nM | 0.67 nM | 114 min | 0.000102 s⁻¹ | 151000 M⁻¹ s⁻¹ | 22.4 nM | 9 min | 0.00125 s⁻¹ | 55800 M⁻¹ s⁻¹ | 56.3 nM | 4 min | 0.00263 s⁻¹ | 46800 M⁻¹ s⁻¹ | 1.53 nM | 39 min | 0.000295 s⁻¹ | 193000 M⁻¹ s⁻¹ | 72 nM | 2 min | binding result [2]: no binding; koff [7]: 0.00488 s⁻¹; kon [7]: 67800 M⁻¹ s⁻¹ |
